The target in assay [1] is T1, human c-MET (human, UniProt P08581 25-1390). Briefly: cell-based or functional assay.
Assay [2] addresses T1, human c-MET. Briefly: flow cytometry on MKN45 cells (highly express c-MET). An excerpt:
(§1) A flow cytometer (Beckman, model Cytoflex) was used to detect the interaction between anti-human EGFR/c-MET bispecific antibodies and their conjugates and human gastric cancer cells MKN45 (Nanjing Cobioer Biosciences) and human gastric cancer cells overexpressing human EGFR MKN45-EGFR (Kelun-Biotech), human lung squamous cell carcinoma EBC-1 (Nanjing Cobioer Biosciences), human lung squamous cell carcinoma EBC-1-EGFR overexpressing human EGFR (Kelun-Biotech), human non-small cell lung cancer cell HCC827 (ATCC™), and human epidermal squamous cell carcinoma cell A431 (Nanjing Cobioer Biosciences). The protocol was as follows.
(§2) The adherent cells were digested with Trypsin-EDTA solution (0.25%) (Shanghai BasalMedia) and the cell density adjusted to 4.0×10⁶ per mL. The cells were washed twice with 1% BSA and resuspended in 1% BSA solution. Then 50 μL cell suspension was added to each well of a 96-well plate (the number of cells was 2×10⁵ per well). The antibody and its conjugate were diluted with 1% BSA (final concentration 10 µg/mL, 3-fold gradient dilution, a total of 11 concentration points). Then 50 μL of the diluted antibody and ADC were added to the wells of the 96-well plate and the plate was incubated at 4° C. for 60 minutes. The wells of the 96-well plate were then washed twice with 1% BSA, 50 μL of diluted secondary antibody was added to each well, and the 96-well plate was incubated at 4° C. for 30 minutes. Then the cells were washed twice with 1% BSA, and the cells were resuspended in 200 μL of 1% BSA and subjected to flow cytometry detection.
(In general: A flow cytometer gives signals particle by particle.)

The target in assay [3] is T1, human c-MET. Briefly: flow cytometry on EBC-1 cells (highly express c-MET).
Excerpt: as §1, §2

For the next assay, the target named is T2, human EGFR (human, UniProt P00533 25-1210).
T2 construct: whole, on cells; also called epidermal growth factor receptor; ErbB-1
Briefly: flow cytometry on A431 cells (highly express EGFR).
Excerpt: as §1
as §2, with “The wells of the 96-well plate were then washed twice with 1% BSA, 50 μL of diluted secondary antibody was added to each well, and the 96-well plate was incubated at 4° C. for 30 minutes. Then the cells were washed twice with 1% BSA, and the cells were resuspended in 200 μL of 1% BSA and subjected to flow cytometry detection.” left out

T1 sequence (P08581 25-1390): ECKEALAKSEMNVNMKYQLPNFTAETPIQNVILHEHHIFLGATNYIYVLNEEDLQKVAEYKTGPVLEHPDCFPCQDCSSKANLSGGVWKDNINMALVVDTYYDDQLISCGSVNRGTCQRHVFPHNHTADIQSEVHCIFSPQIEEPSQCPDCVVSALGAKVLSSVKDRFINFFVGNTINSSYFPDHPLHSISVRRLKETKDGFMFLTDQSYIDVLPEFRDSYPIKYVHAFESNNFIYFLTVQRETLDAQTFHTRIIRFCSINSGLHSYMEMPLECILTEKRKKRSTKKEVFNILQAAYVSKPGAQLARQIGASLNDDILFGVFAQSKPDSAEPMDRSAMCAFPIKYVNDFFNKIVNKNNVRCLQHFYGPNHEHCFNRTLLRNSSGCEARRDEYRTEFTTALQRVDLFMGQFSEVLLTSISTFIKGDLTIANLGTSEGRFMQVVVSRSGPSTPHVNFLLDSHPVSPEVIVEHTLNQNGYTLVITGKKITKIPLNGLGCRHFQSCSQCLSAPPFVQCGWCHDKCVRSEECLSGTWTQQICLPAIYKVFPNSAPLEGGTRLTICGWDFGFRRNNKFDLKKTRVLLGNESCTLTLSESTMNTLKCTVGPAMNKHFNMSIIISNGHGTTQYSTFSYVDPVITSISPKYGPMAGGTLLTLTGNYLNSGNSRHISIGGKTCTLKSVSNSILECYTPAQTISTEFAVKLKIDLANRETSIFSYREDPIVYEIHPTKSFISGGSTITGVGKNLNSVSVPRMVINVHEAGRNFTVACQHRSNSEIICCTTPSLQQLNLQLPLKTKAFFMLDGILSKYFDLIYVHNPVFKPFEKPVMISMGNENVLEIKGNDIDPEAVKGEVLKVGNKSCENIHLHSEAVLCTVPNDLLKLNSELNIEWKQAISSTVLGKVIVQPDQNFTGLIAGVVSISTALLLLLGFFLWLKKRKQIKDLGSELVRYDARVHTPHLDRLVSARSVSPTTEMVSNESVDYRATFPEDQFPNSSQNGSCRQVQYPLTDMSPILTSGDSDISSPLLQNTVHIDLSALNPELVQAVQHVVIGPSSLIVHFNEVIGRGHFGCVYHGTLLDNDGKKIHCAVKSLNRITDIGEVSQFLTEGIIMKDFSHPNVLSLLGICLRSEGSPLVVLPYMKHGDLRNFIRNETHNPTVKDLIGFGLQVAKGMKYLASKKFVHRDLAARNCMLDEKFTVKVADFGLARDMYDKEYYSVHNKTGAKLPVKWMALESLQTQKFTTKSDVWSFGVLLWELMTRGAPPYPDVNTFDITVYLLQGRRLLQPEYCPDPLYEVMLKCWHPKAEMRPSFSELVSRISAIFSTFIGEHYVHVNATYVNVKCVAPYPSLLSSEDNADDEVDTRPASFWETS

B1: ADC 10B-A-05 (bispecific antibody, human IgG1, kappa)
light: not shown
heavy: not shown
chain: DIQMTQSPSSLSASVGDRVTITCKSSQSLLYTSSQKNYLAWYQQKPGKAPKLLIYWASTRESGVPSRFSGSGSGTDFTLTISSLQPEDFATYYCQQYYAYPWTFGQGTKVEIKGGGGSGGGGSGGGGSEVQLVESGGGLVQPGGSLRLSCAASGYTFTSYWLHWVRQAPGKGLEWVGMIDPSNSDTRFNPNFKDRFTISADTSKNTAYLQMNSLRAEDTAVYYCATYRSYVTPLDYWGQGTLVTVSSGGGGDKTHTCPPCPAPELLGGPSVFLFPPKPKDTLMISRTPEVTCVVVDVSHEDPEVKFNWYVDGVEVHNAKTKPREEQYNSTYRVVSVLTVLHQDWLNGKEYKCKVSNKALPAPIEKTISKAKGQPREPQVCTLPPSREEMTKNQVSLSCAVKGFYPSDIAVEWESNGQPENNYKTTPPVLDSDGSFFLVSKLTVDKSRWQQGNVFSCSVMHEALHNHYTQKSLSLSPGK
modifications: linker-payload A-05 on reduced Cys sulfhydryls (sites not given); DAR of the whole ADC approximately 6
Turning to B1, in the assay with human c-MET [1], the “IC50, in vitro cell killing (CCK8) on EBC-1 cells” value (from here on “IC50 … on EBC-1 cells”) amounted to 0.59 nM and the “IC50, in vitro cell killing (CCK8) on MKN45 cells” value (from here on “IC50 … on MKN45 cells”) amounted to 0.33 nM. For the same molecule, the EC50 (usually the concentration that produces a half-maximal response) with human c-MET [2] turned out to be 2.14 nM. In addition, the EC50 in the assay with human c-MET [3] came to 1.91 nM.

B2: ADC 49B-B-01 (bispecific antibody, human IgG1, kappa, L234A L235A)
light: DIQMTQSPSSLSASVGDRVTITCKSSQSLLYTSSQKNYLAWYQQKPGKAPKLLIYWASTRESGVPSRFSGSGSGTDFTLTISSLQPEDFATYYCQQYYAYPWTFGQGTKVEIKRTVAAPSVFIFPPSDEQLKSGTASVVCLLNNFYPREAKVQWKVDNALQSGNSQESVTEQDSKDSTYSLSSTLTLSKADYEKHKVYACEVTHQGLSSPVTKSFNRGEC
heavy: not shown
chain: AIQLTQSPSSLSASVGDRVTITCRASQDISSALVWYQQKPGKAPKLLIYDASSLESGVPSRFSGSESGTDFTLTISSLQPEDFATYYCQQFNSYPLTFGGGTKVEIKGGGGSGGGGSGGGGSQVQLVESGGGVVQPGRSLRLSCAASGFTFSTYGMHWVRQAPGKGLEWVAVIWDDGSYKYYGDSVKGRFTISRDNSKNTLYLQMNSLRAEDTAVYYCARDGITMVRGVMKDYFDYWGQGTLVTVSSGGGGDKTHTCPPCPAPEAAGGPSVFLFPPKPKDTLMISRTPEVTCVVVDVSHEDPEVKFNWYVDGVEVHNAKTKPREEQYNSTYRVVSVLTVLHQDWLNGKEYKCKVSNKALAAPIEKTISKAKGQPREPQVCTLPPSRDELTKNQVSLSCAVKGFYPSDIAVEWESNGQPENNYKTTPPVLDSDGSFFLVSKLTVDKSRWQQGNVFSCSVMHEALHNHYTQKSLSLSPGK
modifications: linker-payload B-01 on reduced Cys sulfhydryls (sites not given); DAR of the whole ADC approximately 6
As to B2, in the assay with human c-MET [1], the “IC50 … on EBC-1 cells” value is 0.66 nM and the “IC50 … on MKN45 cells” value stood at 0.78 nM. Besides, the EC50 with human c-MET [2] was 1.36 nM. It took 1.13 nM to reach a half-maximal effect with human c-MET [3] (EC50).

B3: ADC 41B-A-05 (bispecific antibody, human IgG1, kappa, L234A L235A)
light: not shown
heavy: not shown
chain: DIQMTQSPSSLSASVGDRVTITCKSSQSLLYTSSQKNYLAWYQQKPGKAPKLLIYWASTRESGVPSRFSGSGSGTDFTLTISSLQPEDFATYYCQQYYAYPWTFGCGTKVEIKRTVAAPSVFIFPPSDEQLKSGTASVVCLLNNFYPREAKVQWKVDNALQSGNSQESVTEQDSKDSTYSLSSTLTLSKADYEKHKVYACEVTHQGLSSPVTKSFNRGECGGGGSGGGGSGGGGSGGGGSGGGGSGGGGSGGGGSGGGGSEVQLVESGGGLVQPGGSLRLSCAASGYTFTSYWLHWVRQAPGKCLEWVGMIDPSNSDTRFNPNFKDRFTISADTSKNTAYLQMNSLRAEDTAVYYCATYRSYVTPLDYWGQGTLVTVSSASTKGPSVFPLAPSSKSTSGGTAALGCLVKDYFPEPVTVSWNSGALTSGVHTFPAVLQSSGLYSLSSVVTVPSSSLGTQTYICNVNHKPSNTKVDKKVEPKSCDKTHTCPPCPAPEAAGGPSVFLFPPKPKDTLMISRTPEVTCVVVDVSHEDPEVKFNWYVDGVEVHNAKTKPREEQYNSTYRVVSVLTVLHQDWLNGKEYKCKVSNKALAAPIEKTISKAKGQPREPQVCTLPPSRDELTKNQVSLSCAVKGFYPSDIAVEWESNGQPENNYKTTPPVLDSDGSFFLVSKLTVDKSRWQQGNVFSCSVMHEALHNHYTQKSLSLSPGK
modifications: linker-payload A-05 on reduced Cys sulfhydryls (sites not given); DAR of the whole ADC approximately 8
In turn, B3 registered an EC50 with human EGFR of 0.48 nM. In the assay with human c-MET [1], the “IC50 … on EBC-1 cells” value amounted to 0.44 nM and the “IC50 … on MKN45 cells” value came out at 0.42 nM. In the assay with human c-MET [2], this molecule displayed an EC50 of 0.69 nM.

B4: BsAb 41B (bispecific antibody, human IgG1, kappa, L234A L235A)
light: not shown
heavy: not shown
chain: B3 chain
notes: Fab-scFab-Fc (KIH) format; anti-EGFR Fab, anti-c-MET scFab; also called bispecific antibody 41B
On to B4, for which the EC50 with human EGFR is 1.34 nM; with human c-MET [2], 1.77 nM.

The values are drawn from patent US20250161474A1 (SICHUAN KELUN BIOTECH BIOPHARMACEUTICAL, published 2025).
